This note sets out measurements from the supplement of paper PMC11246515.

The nature of this data set: total protein half-life in vivo (active degradation + dilution); higher = more stable protein.
Setting [1] is: E. coli NCM3722 delta-hslV, growth: N-lim chemostat, doubling time 6 h.
[2] abbreviates: wild type E. coli NCM3722, growth: C-lim chemostat, doubling time 3 h.
The mark [3] stands for this setting: wild type E. coli NCM3722, growth: C-lim chemostat, doubling time 6 h.
Where [4] appears, read: wild type E. coli NCM3722, growth: C-lim chemostat, doubling time 12 h.
The mark [5] stands for this setting: wild type E. coli NCM3722, growth: N-lim chemostat, doubling time 12 h.
The mark [6] stands for this setting: E. coli NCM3722 delta-clpP delta-lon delta-hslV, growth: N-lim chemostat, doubling time 6 h.
Setting [7] is: E. coli NCM3722 delta-lon, growth: N-lim chemostat, doubling time 6 h.
Where [8] appears, read: E. coli NCM3722 delta-smpB, growth: N-lim chemostat, doubling time 6 h.
The mark [9] stands for this setting: wild type E. coli NCM3722, growth: N-lim chemostat, doubling time 6 h.
Setting [10] is: wild type E. coli NCM3722, growth: P-lim chemostat, doubling time 12 h.
Where [11] appears, read: E. coli NCM3722 delta-clpP, growth: N-lim chemostat, doubling time 6 h.
[12] abbreviates: wild type E. coli NCM3722, growth: P-lim chemostat, doubling time 6 h.

± gives the standard deviation of the averaged measurements. Where only a bound is given, the exact number is not on record here.

Turning to “MNLKLQLKILSFLQFCLWGSWLTTLGSYMFVTLKFDGASIGAVYSSLGIAAVFMPALLGIVADKWLSAKWVYAICHTIGAITLFMAAQVTTPEAMFLVILINSFAYMPTLGLINTISYYRLQNAGMDIVTDFPPIRIWGTIGFIMAMWVVSLSGFELSHMQLYIGAALSAILVLFTLTLPHIPVAKQQANQSWTTLLGLDAFALFKNKRMAIFFIFSMLLGAELQITNMFGNTFLHSFDKDPMFASSFIVQHASIIMSISQISETLFILTIPFFLSRYGIKNVMMISIVAWILRFALFAYGDPTPFGTVLLVLSMIVYGCAFDFFNISGSVFVEKEVSPAIRASAQGMFLMMTNGFGCILGGIVSGKVVEMYTQNGITDWQTVWLIFAGYSVVLAFAFMAMFKYKHVRVPTGTQTVSH [P0AFF4]”, the “total protein half-life in vivo” value is more than 8 h under setting [1]; 1.79 h under setting [2]; 6.63 h under setting [3]; 10.8 ± 2.5 h under setting [4]; 4.5 h under setting [5].
With “MKEKPAVEVRLDKWLWAARFYKTRALAREMIEGGKVHYNGQRSKPSKIVELNATLTLRQGNDERTVIVKAITEQRRPASEAALLYEETAESVEKREKMALARKLNALTMPHPDRRPDKKERRDLLRFKHGDSE [P0ACG8]”, the “total protein half-life in vivo” value turned out to be 6.23 ± 0.21 h under setting [6]; 5.39 h under setting [7]; 3.67 h under setting [8]; 2.91 h under setting [2]; 5.7 ± 1.5 h under setting [3]; 6.7 h under setting [4]. Besides, the “total protein half-life in vivo” value is 4.16 h under setting [9], 6.59 h under setting [5] and 7.24 h under setting [10].
Take “MSQQVIIFDTTLRDGEQALQASLSVKEKLQIALALERMGVDVMEVGFPVSSPGDFESVQTIARQVKNSRVCALARCVEKDIDVAAESLKVAEAFRIHTFIATSPMHIATKLRSTLDEVIERAIYMVKRARNYTDDVEFSCEDAGRTPIADLARVVEAAINAGATTINIPDTVGYTMPFEFAGIISGLYERVPNIDKAIISVHTHDDLGLAVGNSLAAVHAGARQVEGAMNGIGERAGNCSLEEVIMAIKVRKDILNVHTAINHQEIWRTSQLVSQICNMPIPANKAIVGSGAFAHSSGIHQDGVLKNRENYEIMTPESIGLNQIQLNLTSRSGRAAVKHRMDEMGYKESEYNLDNLYDAFLKLADKKGQVFDYDLEALAFIGKQQEEPEHFRLDYFSVQSGSNDIATAAVKLACGEEVKAEAANGNGPVDAVYQAINRITEYNVELVKYSLTAKGHGKDALGQVDIVANYNGRRFHGVGLATDIVESSAKAMVHVLNNIWRAAEVEKELQRKAQHNENNKETV”: the “total protein half-life in vivo” value was 4.72 ± 0.57 h under setting [6]; 4.48 ± 0.55 h under setting [11]; 1.61 ± 0.08 h under setting [1]; 1.77 ± 0.1 h under setting [7]; 1.492 ± 0.0018 h under setting [8]; 2.21 ± 0.067 h under setting [2]. The “total protein half-life in vivo” value runs as follows: under setting [3], 3.71 ± 0.24 h; under setting [4], 4.45 ± 0.23 h; under setting [9], 1.63 ± 0.16 h; under setting [5], 1.92 ± 0.043 h; under setting [12], 3.83 ± 0.44 h; under setting [10], 6.6 ± 0.52 h.
Regarding “MSNKMTGLVKWFNADKGFGFISPVDGSKDVFVHFSAIQNDNYRTLFEGQKVTFSIESGAKGPAAANVIITD”, the “total protein half-life in vivo” value runs as follows: under setting [6], 0.427 ± 0.069 h; under setting [11], 0.486 ± 0.036 h; under setting [1], 0.454 h; under setting [7], 0.617 ± 0.26 h; under setting [2], 2.03 h; under setting [4], 0.407 h. Besides, the “total protein half-life in vivo” value under setting [9] was 0.537 h, the “total protein half-life in vivo” value under setting [5] turned out to be 0.434 h and the “total protein half-life in vivo” value under setting [10] is 1.16 h.
As for “MTEIYEQAKHSLQGEDFSSFNYLFAVNKLLSNPVSYDLGRDLIVRALDSRERFSEHTTILKNMVRKSGLFPYLKKEFTSLTPDDLRVLELYRTPFSDGYVFHSMQFHIFDLLKSGQNVVLSAPTSMGKSAIVDSLLGMGTLKRLVLVVPTVALADETRRRLQERFGDRYQIIHHSSQVCHSDQAVYVLTQERVNERDDIVDIDLFVIDEFYKLAFRQLKSGDIDHQDERVIELNIALSKLLKVSRQFYLTGPFVNSIRGLEKLGYPHTFVSTDFNTVALDVKTFGIKANDDKAKLKALGEIAHACVDATIIYCKSPTVAGLVARELIRLGHGTPTENPHVDWVSEEFDADWDYTVALRNGIGLHFGALPRALQQYTADQFNAGKLRFLLCTSTIIEGVNTIAKNVVIYDNRDGTRSIDKFTHGNIKGRAGRMGVHFVGKIFCLEEIPEDNLNQEVDIPLGIQGIDTPINLLASVQPDHLSEFSQDRFDEVFINDRVSIDLVKKHSYFRVEQFEMLQSMFEMMDDNEFSSLVFHWTPATNFLKTFAKIIARLVPHTFSRNGVPVKPTDVMIAKLAGYLSAESYSEYLKNQIDYARQWISEGEKRTLSIALNNDLKLITNTFGYTLPKVLSLMEDVVKHHAVKRGIRSKVDYTHVKLAFESFHLPPGVNALEEIGIPIQTLHRLVDLLEFSDEADVDELSQYLRDTQDIWSRSIGYVDQMFIRRALGIRRH”, under setting [6], the “total protein half-life in vivo” value came out at 6.27 ± 1.3 h.
Turning to “MQQQKPLEGAQLVIMTIALSLATFMQVLDSTIANVAIPTIAGNLGSSLSQGTWVITSFGVANAISIPLTGWLAKRVGEVKLFLWSTIAFAIASWACGVSSSLNMLIFFRVIQGIVAGPLIPLSQSLLLNNYPPAKRSIALALWSMTVIVAPICGPILGGYISDNYHWGWIFFINVPIGVAVVLMTLQTLRGRETRTERRRIDAVGLALLVIGIGSLQIMLDRGKELDWFSSQEIIILTVVAVVAICFLIVWELTDDNPIVDLSLFKSRNFTIGCLCISLAYMLYFGAIVLLPQLLQEVYGYTATWAGLASAPVGIIPVILSPIIGRFAHKLDMRRLVTFSFIMYAVCFYWRAYTFEPGMDFGASAWPQFIQGFAVACFFMPLTTITLSGLPPERLAAASSLSNFTRTLAGSIGTSITTTMWTNRESMHHAQLTESVNPFNPNAQAMYSQLEGLGMTQQQASGWIAQQITNQGLIISANEIFWMSAGIFLVLLGLVWFAKPPFGAGGGGGGAH [P0AEJ0]”, the “total protein half-life in vivo” value reads like this: under setting [6], 7.36 h; under setting [11], 6.64 ± 0.3 h; under setting [1], 6.52 ± 0.46 h; under setting [7], 5.94 h; under setting [8], 5.55 ± 0.64 h; under setting [2], 3.78 h. Further, the “total protein half-life in vivo” value is more than 16 h under setting [4], 5.89 h under setting [12] and 10.4 ± 0.82 h under setting [10].
Turning to “MKALSKLKAEEGIWMTDVPVPELGHNDLLIKIRKTAICGTDVHIYNWDEWSQKTIPVPMVVGHEYVGEVVGIGQEVKGFKIGDRVSGEGHITCGHCRNCRGGRTHLCRNTIGVGVNRPGCFAEYLVIPAFNAFKIPDNISDDLAAIFDPFGNAVHTALSFDLVGEDVLVSGAGPIGIMAAAVAKHVGARNVVITDVNEYRLELARKMGITRAVNVAKENLNDVMAELGMTEGFDVGLEMSGAPPAFRTMLDTMNHGGRIAMLGIPPSDMSIDWTKVIFKGLFIKGIYGREMFETWYKMAALIQSGLDLSPIITHRFSIDDFQKGFDAMRSGQSGKVILSWD”, the “total protein half-life in vivo” value under setting [6] was determined as 4.87 ± 0.096 h; the “total protein half-life in vivo” value under setting [11] is 5 ± 0.21 h; the “total protein half-life in vivo” value under setting [1] is 5.96 ± 1.6 h; the “total protein half-life in vivo” value under setting [7] is 5.24 ± 0.061 h; the “total protein half-life in vivo” value under setting [8] is 4.44 ± 0.18 h; the “total protein half-life in vivo” value under setting [2] stood at 2.439 ± 0.022 h. The “total protein half-life in vivo” value under setting [3] worked out at 4.37 ± 0.59 h; the “total protein half-life in vivo” value under setting [4] stood at 9.68 ± 1.8 h; the “total protein half-life in vivo” value under setting [9] came to 4.85 ± 0.16 h; the “total protein half-life in vivo” value under setting [5] is 8.68 ± 0.96 h; the “total protein half-life in vivo” value under setting [12] turned out to be 6.2 ± 0.19 h; the “total protein half-life in vivo” value under setting [10] was determined as 12.6 ± 0.36 h.
As to “MTKQPPIAKADLQKTQGNRAPAAVKNSDVISFINQPSMKEQLAAALPRHMTAERMIRIATTEIRKVPALGNCDTMSFVSAIVQCSQLGLEPGSALGHAYLLPFGNKNEKSGKKNVQLIIGYRGMIDLARRSGQIASLSARVVREGDEFSFEFGLDEKLIHRPGENEDAPVTHVYAVARLKDGGTQFEVMTRKQIELVRSLSKAGNNGPWVTHWEEMAKKTAIRRLFKYLPVSIEIQRAVSMDEKEPLTIDPADSSVLTGEYSVIDNSEE”, the “total protein half-life in vivo” value by setting is: under setting [6], 5.151 ± 0.025 h; under setting [1], 1.34 h; under setting [2], 2.62 ± 0.65 h; under setting [3], 3.79 ± 0.043 h; under setting [4], 7.28 ± 0.72 h; under setting [9], 1.57 h. Moreover, the “total protein half-life in vivo” value runs as follows: under setting [5], 3.39 h; under setting [10], 4.09 ± 0.29 h.
